The target of assay [1] is TCR–CD3 complex on T cells (human (endogenous in Jurkat and primary T cells)) (UniProt P07766).
Assay [2] concerns the target human CD19 (human (endogenous in Raji)) (UniProt P15391).

human CD19 (human (endogenous in Raji)), sequence (P15391 20-556): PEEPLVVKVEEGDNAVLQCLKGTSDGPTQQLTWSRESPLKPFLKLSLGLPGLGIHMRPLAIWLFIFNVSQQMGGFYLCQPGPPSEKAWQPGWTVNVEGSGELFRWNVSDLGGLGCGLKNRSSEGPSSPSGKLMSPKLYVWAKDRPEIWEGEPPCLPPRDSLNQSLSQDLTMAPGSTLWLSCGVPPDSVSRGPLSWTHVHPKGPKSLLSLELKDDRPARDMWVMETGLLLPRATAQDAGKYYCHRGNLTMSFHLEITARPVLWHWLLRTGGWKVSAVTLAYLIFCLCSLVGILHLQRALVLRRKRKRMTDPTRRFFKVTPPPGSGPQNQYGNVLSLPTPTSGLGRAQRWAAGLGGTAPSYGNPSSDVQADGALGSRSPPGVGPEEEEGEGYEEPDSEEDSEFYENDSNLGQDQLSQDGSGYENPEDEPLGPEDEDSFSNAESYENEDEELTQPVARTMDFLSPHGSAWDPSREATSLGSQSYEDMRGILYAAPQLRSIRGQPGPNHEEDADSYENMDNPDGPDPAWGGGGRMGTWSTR
TCR–CD3 complex on T cells (human (endogenous in Jurkat and primary T cells)), sequence (P07766 whole entry, looked up, one chain of several): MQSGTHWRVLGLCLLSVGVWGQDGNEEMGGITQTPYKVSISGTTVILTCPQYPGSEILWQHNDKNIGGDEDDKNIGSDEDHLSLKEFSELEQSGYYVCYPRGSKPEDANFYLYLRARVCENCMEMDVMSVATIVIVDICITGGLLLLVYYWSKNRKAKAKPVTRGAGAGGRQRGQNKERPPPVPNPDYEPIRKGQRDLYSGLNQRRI

Consider “Blinatumomab (CD19xCD3 BiTE) (bispecific antibody)”, for which the activation of Jurkat-ZsG NFAT reporter cells (ZsGreen) in droplets with CD19+ Raji cells and 100 ng/ml Blinatumomab; percent activated in assay [1] and in assay [2] was 40% throughout.

These data come from paper PMC10082157.
